Test results as given in the supplement of paper PMC12783771.
± gives the standard deviation of the averaged measurements.

B1: library; numbered along this chain (parent)
chain: MNIQIGELAKRTACPVVTIRFYEQEGLLPPPGRSRGNFRLYGEEHVERLQFIRHCRSLDMPLSDVRTLLSYRKRPDQDCGEVNMLLDEHIRQVESRIGALLELKHHLVELREACSGARPAQSCGILQGLSDCVCDTRGTTAHPSD

What was measured:
[1] = variants of: B1; assay: sfGFP reporter fluorescence (15 h) (µM FITC); higher = higher leak; settings: library round: Round 0; ligand: none
Procedure, shortened: (§1)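 PCR-made linear PbrR templates (Echo-normalized to 5 nM) were expressed in BL21 Star (DE3) extract (PANOx-SP) with pPbrR-sfGFP reporter plasmid and 30 μg/mL GamS. Reactions were 1 μL, Echo-assembled, with 1 µM lead chloride, 30 µM zinc acetate or no metal, incubated 15 hr at 30 °C. Endpoint sfGFP fluorescence (485/528 nm, Synergy Neo2) was converted to µM FITC via standard curves in 50 mM sodium borate pH 8.5. Up to three biological replicates.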

[2] = variants of: B1; assay: sfGFP reporter fluorescence (15 h) (µM FITC); higher = stronger transcriptional activation; settings: library round: Round 0
Procedure, shortened: as §1

Variant	sfGFP reporter fluorescence [1]	sfGFP reporter fluorescence ([2]; ligand: 1 µM Pb)	sfGFP reporter fluorescence ([2]; ligand: 30 µM Zn)
L69A	0.0629 ± 0.0018	0.0627 ± 0.0021	0.2252 ± 0.0013
E81A	0.0612 ± 0.001	0.0792 ± 0.0047	0.655 ± 0.13
V82H	0.0594 ± 0.0015	0.05974 ± 0.00052	0.0586 ± 0.001
V82L	0.0574 ± 0.0034	0.0583 ± 0.001	0.0724 ± 0.0044
V82M	0.0594	0.0586	0.06212 ± 0.00026
V82G	0.0555 ± 0.0023	0.0564 ± 0.001	0.0548 ± 0.0018
V82S	0.0592 ± 0.0023	0.057 ± 0.0018	0.05552 ± 0.00026
V82T	0.0588 ± 0.0013	0.059 ± 0.0021	0.0583 ± 0.0057
V82W	0.0592 ± 0.0013	0.05827 ± 0.00052	0.0555 ± 0.00078
V82K	0.0601 ± 0.0021	0.0566 ± 0.0039	0.0563 ± 0.0039
V82R	0.0605 ± 0.0015	0.05937 ± 0.00052	0.0568 ± 0.001
V82I	0.0572 ± 0.0015	0.0658 ± 0.0023	0.676 ± 0.0088
V82E	0.0568 ± 0.0026	0.0586 ± 0.0015	0.0541 ± 0.0029
V82P	0.057 ± 0.00078	0.05754 ± 0.00052	0.0577 ± 0.0013
V82C	0.05956 ± 0.00026	0.0588 ± 0.00078	0.0898 ± 0.0042
V82F	0.0572	0.0572 ± 0.0015	0.053 ± 0.0023
V82Y	0.0588 ± 0.0034	0.05864 ± 0.00052	0.0544 ± 0.0013
V82Q	0.0579 ± 0.0021	0.05699 ± 0.00026	0.0552 ± 0.0013
V82A	0.06047 ± 0.00052	0.057 ± 0.0013	0.0786 ± 0.0039
V82D	0.057 ± 0.0044	0.0597	0.055
V82N	0.0597 ± 0.001	0.0597 ± 0.0015	0.05644 ± 0.00052
I90Q	0.05974 ± 0.00052	0.0737 ± 0.0042	0.637 ± 0.052
